Here are results for six molecules from US20140206609A1 (Sanofi, published 2014).

Holding throughout (assay): cell-based or functional assay
In test [1] the target is human glucagon receptor (human, UniProt P47871 26-477).
The target of test [2] is human GLP-1 receptor (human, UniProt P43220 24-463).
The target in test [3] is T1, human GIP receptor (human, UniProt P48546 22-466).
T1 sequence (looked up): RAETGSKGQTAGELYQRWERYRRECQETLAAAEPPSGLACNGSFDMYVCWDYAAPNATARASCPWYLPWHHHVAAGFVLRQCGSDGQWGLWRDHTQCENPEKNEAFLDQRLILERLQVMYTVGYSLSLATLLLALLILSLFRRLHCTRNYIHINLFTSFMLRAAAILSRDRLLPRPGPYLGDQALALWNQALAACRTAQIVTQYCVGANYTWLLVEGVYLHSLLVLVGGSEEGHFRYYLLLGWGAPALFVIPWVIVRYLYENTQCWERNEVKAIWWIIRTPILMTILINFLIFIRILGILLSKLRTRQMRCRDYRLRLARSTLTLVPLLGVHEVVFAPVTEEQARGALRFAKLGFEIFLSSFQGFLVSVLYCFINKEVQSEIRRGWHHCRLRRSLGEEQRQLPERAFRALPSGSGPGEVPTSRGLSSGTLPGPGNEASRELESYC

*1 amine or outer side, *2 acyl side, *3 side chain or, on linkers, in order; H or OH if unused. Where no end group is shown, it is not given here. Side-chain parts run from the residue outwards. [ ]: non-standard residue; d: D form. The star is where a group is joined. γGlu = O=C(O)[C@H](CCC(=O)[*:2])N[*:1]; Stearoyl = CCCCCCCCCCCCCCCCCC(=O)*; Palmitoyl = CCCCCCCCCCCCCCCC(=O)*; Aib = CC(C)(N)C(=O)O; βAla = NCCC(=O)O

Chain of human glucagon receptor (P47871 26-477): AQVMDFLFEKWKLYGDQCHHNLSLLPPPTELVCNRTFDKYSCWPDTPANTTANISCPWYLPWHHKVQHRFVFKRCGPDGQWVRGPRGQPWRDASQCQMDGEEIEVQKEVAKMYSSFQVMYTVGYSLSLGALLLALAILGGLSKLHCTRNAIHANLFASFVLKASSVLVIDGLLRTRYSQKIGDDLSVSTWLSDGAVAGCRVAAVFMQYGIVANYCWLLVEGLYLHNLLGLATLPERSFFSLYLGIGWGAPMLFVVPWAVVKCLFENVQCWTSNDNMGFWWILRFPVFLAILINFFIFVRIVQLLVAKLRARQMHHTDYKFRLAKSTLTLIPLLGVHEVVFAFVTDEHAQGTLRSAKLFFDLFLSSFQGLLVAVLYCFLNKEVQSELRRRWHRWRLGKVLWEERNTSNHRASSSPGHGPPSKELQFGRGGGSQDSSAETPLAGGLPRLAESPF

B1: SEQ ID NO: 18 (peptide)
peptide: Y[Aib]EGTFTSDLSIQK([βAla-βAla-Stearoyl])EKRAA[Aib]EFIEWLKNTGPSSGAPPPS-NH2
modifications: N-terminus assumed
SMILES: CCCCCCCCCCCCCCCCCC(=O)NCCC(=O)NCCC(=O)NCCCC[C@H](NC(=O)[C@H](CCC(N)=O)NC(=O)[C@@H](NC(=O)[C@H](CO)NC(=O)[C@H](CC(C)C)NC(=O)[C@H](CC(=O)O)NC(=O)[C@H](CO)NC(=O)[C@@H](NC(=O)[C@H](Cc1ccccc1)NC(=O)[C@@H](NC(=O)CNC(=O)[C@H](CCC(=O)O)NC(=O)C(C)(C)NC(=O)[C@@H](N)Cc1ccc(O)cc1)[C@@H](C)O)[C@@H](C)O)[C@@H](C)CC)C(=O)N[C@@H](CCC(=O)O)C(=O)N[C@@H](CCCCN)C(=O)N[C@@H](CCCNC(=N)N)C(=O)N[C@@H](C)C(=O)N[C@@H](C)C(=O)NC(C)(C)C(=O)N[C@@H](CCC(=O)O)C(=O)N[C@@H](Cc1ccccc1)C(=O)N[C@H](C(=O)N[C@@H](CCC(=O)O)C(=O)N[C@@H](Cc1c[nH]c2ccccc12)C(=O)N[C@@H](CC(C)C)C(=O)N[C@@H](CCCCN)C(=O)N[C@@H](CC(N)=O)C(=O)N[C@H](C(=O)NCC(=O)N1CCC[C@H]1C(=O)N[C@@H](CO)C(=O)N[C@@H](CO)C(=O)NCC(=O)N[C@@H](C)C(=O)N1CCC[C@H]1C(=O)N1CCC[C@H]1C(=O)N1CCC[C@H]1C(=O)N[C@@H](CO)C(N)=O)[C@@H](C)O)[C@@H](C)CC
With B1, the “EC50 hGLUC R [pM]” value in test [1] stood at 4950 pM. In addition, in test [2], the “EC50 hGLP-1 R [pM]” value came to 7.6 pM.

B2: SEQ ID NO: 39 (peptide)
peptide: Y[Aib]EGTFTSDLSIQK([γGlu-Palmitoyl])ESRAAQEFIEWLKAGGPSSGAPPPS-NH2
modifications: N-terminus assumed
SMILES: CCCCCCCCCCCCCCCC(=O)N[C@@H](CCC(=O)NCCCC[C@H](NC(=O)[C@H](CCC(N)=O)NC(=O)[C@@H](NC(=O)[C@H](CO)NC(=O)[C@H](CC(C)C)NC(=O)[C@H](CC(=O)O)NC(=O)[C@H](CO)NC(=O)[C@@H](NC(=O)[C@H](Cc1ccccc1)NC(=O)[C@@H](NC(=O)CNC(=O)[C@H](CCC(=O)O)NC(=O)C(C)(C)NC(=O)[C@@H](N)Cc1ccc(O)cc1)[C@@H](C)O)[C@@H](C)O)[C@@H](C)CC)C(=O)N[C@@H](CCC(=O)O)C(=O)N[C@@H](CO)C(=O)N[C@@H](CCCNC(=N)N)C(=O)N[C@@H](C)C(=O)N[C@@H](C)C(=O)N[C@@H](CCC(N)=O)C(=O)N[C@@H](CCC(=O)O)C(=O)N[C@@H](Cc1ccccc1)C(=O)N[C@H](C(=O)N[C@@H](CCC(=O)O)C(=O)N[C@@H](Cc1c[nH]c2ccccc12)C(=O)N[C@@H](CC(C)C)C(=O)N[C@@H](CCCCN)C(=O)N[C@@H](C)C(=O)NCC(=O)NCC(=O)N1CCC[C@H]1C(=O)N[C@@H](CO)C(=O)N[C@@H](CO)C(=O)NCC(=O)N[C@@H](C)C(=O)N1CCC[C@H]1C(=O)N1CCC[C@H]1C(=O)N1CCC[C@H]1C(=O)N[C@@H](CO)C(N)=O)[C@@H](C)CC)C(=O)O
On to B2, for which, in test [1], the “EC50 hGLUC R [pM]” value was determined as 19300 pM. For the same molecule, in test [2], the “EC50 hGLP-1 R [pM]” value worked out at 4.3 pM. For the same molecule, the “EC50 hGIP R [pM]” value in test [3] came to 8.5 pM.

B3: SEQ ID NO: 10 (peptide)
peptide: Y[Aib]EGTFTSDLSIQK([γGlu-Palmitoyl])ESRAAQDFIEWLKAGGPSSGAPPPS-NH2
modifications: N-terminus assumed
SMILES: CCCCCCCCCCCCCCCC(=O)N[C@@H](CCC(=O)NCCCC[C@H](NC(=O)[C@H](CCC(N)=O)NC(=O)[C@@H](NC(=O)[C@H](CO)NC(=O)[C@H](CC(C)C)NC(=O)[C@H](CC(=O)O)NC(=O)[C@H](CO)NC(=O)[C@@H](NC(=O)[C@H](Cc1ccccc1)NC(=O)[C@@H](NC(=O)CNC(=O)[C@H](CCC(=O)O)NC(=O)C(C)(C)NC(=O)[C@@H](N)Cc1ccc(O)cc1)[C@@H](C)O)[C@@H](C)O)[C@@H](C)CC)C(=O)N[C@@H](CCC(=O)O)C(=O)N[C@@H](CO)C(=O)N[C@@H](CCCNC(=N)N)C(=O)N[C@@H](C)C(=O)N[C@@H](C)C(=O)N[C@@H](CCC(N)=O)C(=O)N[C@@H](CC(=O)O)C(=O)N[C@@H](Cc1ccccc1)C(=O)N[C@H](C(=O)N[C@@H](CCC(=O)O)C(=O)N[C@@H](Cc1c[nH]c2ccccc12)C(=O)N[C@@H](CC(C)C)C(=O)N[C@@H](CCCCN)C(=O)N[C@@H](C)C(=O)NCC(=O)NCC(=O)N1CCC[C@H]1C(=O)N[C@@H](CO)C(=O)N[C@@H](CO)C(=O)NCC(=O)N[C@@H](C)C(=O)N1CCC[C@H]1C(=O)N1CCC[C@H]1C(=O)N1CCC[C@H]1C(=O)N[C@@H](CO)C(N)=O)[C@@H](C)CC)C(=O)O
In the case of B3, the “EC50 hGLUC R [pM]” value in test [1] was found to be 40000 pM. Besides, in test [2], the “EC50 hGLP-1 R [pM]” value came out at 13.2 pM. The “EC50 hGIP R [pM]” value in test [3] stood at 15.1 pM.

B4: SEQ ID NO: 15 (peptide)
peptide: Y[Aib]EGTFTSDLSIQK([γGlu-Stearoyl])EKRAA[Aib]EFIEWLKNTGPSSGAPPPS-NH2
modifications: N-terminus assumed
SMILES: CCCCCCCCCCCCCCCCCC(=O)N[C@@H](CCC(=O)NCCCC[C@H](NC(=O)[C@H](CCC(N)=O)NC(=O)[C@@H](NC(=O)[C@H](CO)NC(=O)[C@H](CC(C)C)NC(=O)[C@H](CC(=O)O)NC(=O)[C@H](CO)NC(=O)[C@@H](NC(=O)[C@H](Cc1ccccc1)NC(=O)[C@@H](NC(=O)CNC(=O)[C@H](CCC(=O)O)NC(=O)C(C)(C)NC(=O)[C@@H](N)Cc1ccc(O)cc1)[C@@H](C)O)[C@@H](C)O)[C@@H](C)CC)C(=O)N[C@@H](CCC(=O)O)C(=O)N[C@@H](CCCCN)C(=O)N[C@@H](CCCNC(=N)N)C(=O)N[C@@H](C)C(=O)N[C@@H](C)C(=O)NC(C)(C)C(=O)N[C@@H](CCC(=O)O)C(=O)N[C@@H](Cc1ccccc1)C(=O)N[C@H](C(=O)N[C@@H](CCC(=O)O)C(=O)N[C@@H](Cc1c[nH]c2ccccc12)C(=O)N[C@@H](CC(C)C)C(=O)N[C@@H](CCCCN)C(=O)N[C@@H](CC(N)=O)C(=O)N[C@H](C(=O)NCC(=O)N1CCC[C@H]1C(=O)N[C@@H](CO)C(=O)N[C@@H](CO)C(=O)NCC(=O)N[C@@H](C)C(=O)N1CCC[C@H]1C(=O)N1CCC[C@H]1C(=O)N1CCC[C@H]1C(=O)N[C@@H](CO)C(N)=O)[C@@H](C)O)[C@@H](C)CC)C(=O)O
In the case of B4, the “EC50 hGLUC R [pM]” value in test [1] was 5810 pM. In test [3], the “EC50 hGIP R [pM]” value was 8.2 pM.

B5: SEQ ID NO: 38 (peptide)
peptide: Y[Aib]QGTFTSDLSIQK([γGlu-Palmitoyl])DKRAA[Aib]EFIEWLKNTGPSSGAPPPS-NH2
modifications: N-terminus assumed
SMILES: CCCCCCCCCCCCCCCC(=O)N[C@@H](CCC(=O)NCCCC[C@H](NC(=O)[C@H](CCC(N)=O)NC(=O)[C@@H](NC(=O)[C@H](CO)NC(=O)[C@H](CC(C)C)NC(=O)[C@H](CC(=O)O)NC(=O)[C@H](CO)NC(=O)[C@@H](NC(=O)[C@H](Cc1ccccc1)NC(=O)[C@@H](NC(=O)CNC(=O)[C@H](CCC(N)=O)NC(=O)C(C)(C)NC(=O)[C@@H](N)Cc1ccc(O)cc1)[C@@H](C)O)[C@@H](C)O)[C@@H](C)CC)C(=O)N[C@@H](CC(=O)O)C(=O)N[C@@H](CCCCN)C(=O)N[C@@H](CCCNC(=N)N)C(=O)N[C@@H](C)C(=O)N[C@@H](C)C(=O)NC(C)(C)C(=O)N[C@@H](CCC(=O)O)C(=O)N[C@@H](Cc1ccccc1)C(=O)N[C@H](C(=O)N[C@@H](CCC(=O)O)C(=O)N[C@@H](Cc1c[nH]c2ccccc12)C(=O)N[C@@H](CC(C)C)C(=O)N[C@@H](CCCCN)C(=O)N[C@@H](CC(N)=O)C(=O)N[C@H](C(=O)NCC(=O)N1CCC[C@H]1C(=O)N[C@@H](CO)C(=O)N[C@@H](CO)C(=O)NCC(=O)N[C@@H](C)C(=O)N1CCC[C@H]1C(=O)N1CCC[C@H]1C(=O)N1CCC[C@H]1C(=O)N[C@@H](CO)C(N)=O)[C@@H](C)O)[C@@H](C)CC)C(=O)O
Turning to B5, in test [1], the “EC50 hGLUC R [pM]” value is 11.4 pM. Moreover, the “EC50 hGLP-1 R [pM]” value in test [2] is 6.7 pM. In test [3], the “EC50 hGIP R [pM]” value was determined as 11.2 pM.

B6: SEQ ID NO: 8 (peptide)
peptide: Y[Aib]QGTFTSDLSIQK([γGlu-Palmitoyl])EKRAA[Aib]EFIEWLKNTGPSSGAPPPS-NH2
modifications: N-terminus assumed
SMILES: CCCCCCCCCCCCCCCC(=O)N[C@@H](CCC(=O)NCCCC[C@H](NC(=O)[C@H](CCC(N)=O)NC(=O)[C@@H](NC(=O)[C@H](CO)NC(=O)[C@H](CC(C)C)NC(=O)[C@H](CC(=O)O)NC(=O)[C@H](CO)NC(=O)[C@@H](NC(=O)[C@H](Cc1ccccc1)NC(=O)[C@@H](NC(=O)CNC(=O)[C@H](CCC(N)=O)NC(=O)C(C)(C)NC(=O)[C@@H](N)Cc1ccc(O)cc1)[C@@H](C)O)[C@@H](C)O)[C@@H](C)CC)C(=O)N[C@@H](CCC(=O)O)C(=O)N[C@@H](CCCCN)C(=O)N[C@@H](CCCNC(=N)N)C(=O)N[C@@H](C)C(=O)N[C@@H](C)C(=O)NC(C)(C)C(=O)N[C@@H](CCC(=O)O)C(=O)N[C@@H](Cc1ccccc1)C(=O)N[C@H](C(=O)N[C@@H](CCC(=O)O)C(=O)N[C@@H](Cc1c[nH]c2ccccc12)C(=O)N[C@@H](CC(C)C)C(=O)N[C@@H](CCCCN)C(=O)N[C@@H](CC(N)=O)C(=O)N[C@H](C(=O)NCC(=O)N1CCC[C@H]1C(=O)N[C@@H](CO)C(=O)N[C@@H](CO)C(=O)NCC(=O)N[C@@H](C)C(=O)N1CCC[C@H]1C(=O)N1CCC[C@H]1C(=O)N1CCC[C@H]1C(=O)N[C@@H](CO)C(N)=O)[C@@H](C)O)[C@@H](C)CC)C(=O)O
On to B6, for which the “EC50 hGLUC R [pM]” value in test [1] stood at 18.3 pM. In addition, the “EC50 hGLP-1 R [pM]” value in test [2] turned out to be 5.3 pM. In test [3], the “EC50 hGIP R [pM]” value was determined as 9.8 pM.
